Columns and labels:
[1] = target: T1, HLA-E (as used in the in vitro peptide binding assay and in immunoprecipitation) (human), P13747; experiment: in vitro peptide binding assay (ratio of optical densities); row .221-A*0201
[2] = target: T1, HLA-E (as used in the in vitro peptide …); experiment: in vitro peptide binding assay (ratio of optical densities); row .221-A*0211
[3] = target: T1, HLA-E (as used in the in vitro peptide …); experiment: in vitro peptide binding assay (ratio of optical densities); row .221-A*2403
[4] = target: T1, HLA-E (as used in the in vitro peptide …); experiment: in vitro peptide binding assay (ratio of optical densities); row .221-A*2501
[5] = target: T1, HLA-E (as used in the in vitro peptide …); experiment: in vitro peptide binding assay (ratio of optical densities); row .221-A*3601
[6] = target: T1, HLA-E (as used in the in vitro peptide …); experiment: in vitro peptide binding assay (ratio of optical densities); row .221-B*5501

VMAPRTLVL (modifications not checked)
Concentration of peptide required to obtain 50% of binding to HLA-E [1]: 0.06 µM | Concentration of peptide required to obtain 50% of binding to HLA-E [2]: 0.06 µM | Concentration of peptide required to obtain 50% of binding to HLA-E [3]: 0.06 µM | Concentration of peptide required to obtain 50% of binding to HLA-E [4]: 0.06 µM

VMAPRTLLL (modifications not checked)
Concentration of peptide required to obtain 50% of binding to HLA-E [5]: 0.3 µM

VTAPRTLLL (modifications not checked)
Concentration of peptide required to obtain 50% of binding to HLA-E [6]: > 100 µM

Source: patent publication US7410767
